Experimental data as given in US8822645B2, “Prostaglandin E2 dual variable domain immunoglobulins and uses thereof” (AbbVie Inc., priority 2008, dated 2014).
Read-outs that look alike come from different tables or passages of the source.

Tests used:
[1] = tested on: PGE2 / human EP4 receptor in HEK293 Gα16 cells; test: EP4 bioassay (Ca++ flux, neutralization of PGE2); format: cell-based; details: EP4 bioassay, Ca++ flux
Method: The ability of anti-PGE2 antibodies and anti-PGE2 containing DVD-Ig molecules to inhibit the cellular response of PGE2 was determined in a Ca++ flux assay in HEK293 Gα16 cells stably transfected with human EP4 receptor. Cells were plated in black/clear poly-D-lysine plates, (Corning #3667, Corning, N.Y.) and incubated with Ca++-sensitive dye (Molecular Devices) for 90 minutes. Stock PGE2 (in 200 proof ethanol) was diluted with FLIPR buffer (containing 1×HBSS (Invitrogen, Carlsbad, Calif.), 20 mM HEPES (Invitrogen, Carlsbad, Calif.), 0.1% BSA (Sigma, St. Louis, Mo.) and 2.5 mM Probenecid (Sigma, St. Louis, Mo.)). Anti-PGE2 antibodies, DVD-Ig molecules or isotype matched control antibodies were also pre-diluted in FLIPR buffer. 25 μl of PGE2 or pre-incubated PGE2/antibody mixture or pre-incubated PGE2/DVD-Ig molecule mixture was added to the wells pre-plated with cells. A dose response of PGE2 was done by a serial titration of PGE2 and was determined using FLIPR1 or Tetra (Molecular Devices). EC50 was determined using GraphPad Prism 5 (GraftPad Software, La Jolla, Calif.). […] Ca++ flux was monitored using FLIPR1 and data was analyzed using GraphPad Prism 5.
The ability of anti-PGE2 antibodies and anti-PGE2 containing DVD-Ig molecules to inhibit the cellular response of PGE2 was determined in a Ca++ flux assay using stably transfected human EP4 in HEK293 Gα16 cells. Cells were plated in black/clear Poly-D-Lysine plates, (Corning #3667) and incubated with Ca++-sensitive dye (Molecular Devices) for 90 minutes. Stock PGE2 (in 200 proof ethanol) was diluted with FLIPR buffer (containing 1×HBSS, 20 mM HEPES, 0.1% BSA and 2.5 mM Probenecid). Anti-PGE2 antibodies, DVD-Ig molecules or isotype matched control antibodies were also pre-diluted in FLIPR buffer. 25 μl of PGE2 or pre-incubated PGE2/antibody mixture or pre-incubated PGE2/DVD-Ig molecule mixture was added to the wells pre-plated with cells. A dose response of PGE2 was done by a serial titration of PGE2 and was determined using FLIPR1 or Tetra (Molecular Devices). EC50 was determined using GraphPad Prism 5. […] Ca++ flux was monitored using FLIPR1 and data was analyzed using GraphPad Prism 5.

[2] = PGE2-biotinamide ELISA (PGE2 binding)
Method: (§1) Enzyme linked immunosorbent assays to screen for anti-PGE2 antibodies or anti-PGE2 containing DVD-Ig molecules that bind prostaglandin E2 were performed as follows. ELISA plates (Costar 3369, Corning, N.Y.) were coated with 50 μl of anti-host Fc IgG (Sigma, St. Louis, Mo.) at 2 μg/ml in PBS (Invitrogen Carlsbad, Calif.). Following an overnight incubation at 4° C., the plate was blocked with 200 μl Superblock (Pierce #37535, Rockford, Ill.). The IgG or DVD-Ig containing samples were diluted to 1 μg/ml in Assay Buffer (10% Superblock in PBS containing 0.05% Surfactamps (Pierce #37535, Rockford, Ill.) and incubated on the plate at 50 μl/well for 1 hour at room temperature. Following the incubation, plates were washed four times with TTBS (Tween-Tris Buffered Solution). For PGE2 binding, PGE2-biotinamide (Cayman Chemicals, Ann Arbor, Mich.) was diluted to 30 nM and serially diluted in Assay Buffer. The titration curve was added to each IgG or DVD-Ig sample at a volume of 50 μl/well and incubated for 1 hour at room temperature. The plates were washed as previously described and 50 μl/well of 1:5000 dilution of streptavidin polyhrp40 (Fitzgerald Industries, Concord, Mass.) in Assay Buffer was added and incubated for 45 minutes at room temperature. A final wash step was performed and the plates were developed using a single step TMB system (Sigma #T8665, St. Louis, Mo.) and 2N H2SO4. Plates were read at 450 nm on a Molecular Devices Spectramax plate reader (Sunnyvale, Calif.). EC50 was determined using GraphPad Prism 5 (GraphPad Software, La Jolla, Calif.) (FIG. 2).
as §1, with “ELISA” for “Enzyme linked immunosorbent assays to screen for anti-PGE2 antibodies or anti-PGE2 containing DVD-Ig molecules that bind prostaglandin E2 were performed as follows. ELISA”, “(Invitrogen,” for “(Invitrogen”, “IgG” for “IgG or DVD-Ig”, “Solution).” for “Solution). For PGE2 binding,”, “Calif.).” for “Calif.) (FIG. 2).”

[3] = PGE2 VD in C-terminal position, read-out: C-terminal VD PGE2 Neutralization EC50
[4] = PGE2 VD in C-terminal position, read-out: Direct Bind ELISA C-terminal VD EC50
[5] = PGE2 VD in N-terminal position, read-out: N-terminal VD PGE2 Neutralization EC50
[6] = PGE2 VD in N-terminal position, read-out: Direct Bind ELISA N-terminal VD EC50

| EC50 [2, 4] [pM] | EC50 [2, 6] [pM] | Molecule | EC50 [1, 3] [pM] | EC50 [1, 5] [pM] | also measured |
| --- | --- | --- | --- | --- | --- |
| 1300 |  | DVD164: DVD-Ig construct listed in Table 4 (antibody) VH: QVQLQESGPGLVKPSETLSLTCTVSGFSLIGYDLNWIRQPPGKGLEWIGIIWGDGTTDYNSAVKSRVTISKDTSKNQFSLKLSSVTAADTAVYYCARGGYWYATSYYFDYWGQGTLVTVSSASTKGPEVQLVQSGAEVKKPGASVKVSCKASGYTFTKYWLGWVRQAPGQGLEWMGDIYPGYDYTHYNEKFKDRVTLTTDTSTSTAYMELRSLRSDDTAVYYCARSDGSSTYWGQGTLVTVSS VL: DIQMTQSPSSLSASVGDRVTITCRASQSISNNLNWYQQKPGKAPKLLIYYTSRFHSGVPSRFSGSGSGTDFTFTISSLQPEDIATYYCQQEHTLPYTFGQGTKLEIKRTVAAPDVLMTQTPLSLPVTPGEPASISCTSSQNIVHSNGNTYLEWYLQKPGQSPQLLIYKVSNRFSGVPDRFSGSGSGTDFTLKISRVEAEDVGVYYCFQVSHVPYTFGGGTKVEIKR | 79 |  |  |
| 1320 |  | DVD162: DVD-Ig construct listed in Table 4 (antibody) VH: EVQLVESGGGLVQPGGSLRLSCAASGYTFTNYGMNWVRQAPGKGLEWVGWINTYTGEPTYAADFKRRFTFSLDTSKSTAYLQMNSLRAEDTAVYYCAKYPHYYGSSHWYFDVWGQGTLVTVSSASTKGPEVQLVQSGAEVKKPGASVKVSCKASGYTFTKYWLGWVRQAPGQGLEWMGDIYPGYDYTHYNEKFKDRVTLTTDTSTSTAYMELRSLRSDDTAVYYCARSDGSSTYWGQGTLVTVSS VL: DIQMTQSPSSLSASVGDRVTITCSASQDISNYLNWYQQKPGKAPKVLIYFTSSLHSGVPSRFSGSGSGTDFTLTISSLQPEDFATYYCQQYSTVPWTFGQGTKVEIKRTVAAPDVLMTQTPLSLPVTPGEPASISCTSSQNIVHSNGNTYLEWYLQKPGQSPQLLIYKVSNRFSGVPDRFSGSGSGTDFTLKISRVEAEDVGVYYCFQVSHVPYTFGGGTKVEIKR | 67 |  |  |
|  | 1230 | DVD157: DVD-Ig construct listed in Table 4 (antibody) VH: EVQLVQSGAEVKKPGASVKVSCKASGYTFTKYWLGWVRQAPGQGLEWMGDIYPGYDYTHYNEKFKDRVTLTTDTSTSTAYMELRSLRSDDTAVYYCARSDGSSTYWGQGTLVTVSSASTKGPQVQLVESGGGVVQPGRSLRLSCAASGFTFSVYGMNWVRQAPGKGLEWVAIIWYDGDNQYYADSVKGRFTISRDNSKNTLYLQMNGLRAEDTAVYYCARDLRTGPFDYWGQGTLVTVSS VL: DVLMTQTPLSLPVTPGEPASISCTSSQNIVHSNGNTYLEWYLQKPGQSPQLLIYKVSNRFSGVPDRFSGSGSGTDFTLKISRVEAEDVGVYYCFQVSHVPYTFGGGTKVEIKRTVAAPEIVLTQSPDFQSVTPKEKVTITCRASQSIGSSLHWYQQKPDQSPKLLIKYASQSFSGVPSRFSGSGSGTDFTLTINSLEAEDAAAYYCHQSSSLPFTFGPGTKVDIKR |  | 217 |  |
| 1140 |  | DVD158: DVD-Ig construct listed in Table 4 (antibody) VH: QVQLVESGGGVVQPGRSLRLSCAASGFTFSVYGMNWVRQAPGKGLEWVAIIWYDGDNQYYADSVKGRFTISRDNSKNTLYLQMNGLRAEDTAVYYCARDLRTGPFDYWGQGTLVTVSSASTKGPEVQLVQSGAEVKKPGASVKVSCKASGYTFTKYWLGWVRQAPGQGLEWMGDIYPGYDYTHYNEKFKDRVTLTTDTSTSTAYMELRSLRSDDTAVYYCARSDGSSTYWGQGTLVTVSS VL: EIVLTQSPDFQSVTPKEKVTITCRASQSIGSSLHWYQQKPDQSPKLLIKYASQSFSGVPSRFSGSGSGTDFTLTINSLEAEDAAAYYCHQSSSLPFTFGPGTKVDIKRTVAAPDVLMTQTPLSLPVTPGEPASISCTSSQNIVHSNGNTYLEWYLQKPGQSPQLLIYKVSNRFSGVPDRFSGSGSGTDFTLKISRVEAEDVGVYYCFQVSHVPYTFGGGTKVEIKR | 210 |  |  |
|  | 1020 | DVD161: DVD-Ig construct listed in Table 4 (antibody) VH: EVQLVQSGAEVKKPGASVKVSCKASGYTFTKYWLGWVRQAPGQGLEWMGDIYPGYDYTHYNEKFKDRVTLTTDTSTSTAYMELRSLRSDDTAVYYCARSDGSSTYWGQGTLVTVSSASTKGPEVQLVESGGGLVQPGGSLRLSCAASGYTFTNYGMNWVRQAPGKGLEWVGWINTYTGEPTYAADFKRRFTFSLDTSKSTAYLQMNSLRAEDTAVYYCAKYPHYYGSSHWYFDVWGQGTLVTVSS VL: DVLMTQTPLSLPVTPGEPASISCTSSQNIVHSNGNTYLEWYLQKPGQSPQLLIYKVSNRFSGVPDRFSGSGSGTDFTLKISRVEAEDVGVYYCFQVSHVPYTFGGGTKVEIKRTVAAPDIQMTQSPSSLSASVGDRVTITCSASQDISNYLNWYQQKPGKAPKVLIYFTSSLHSGVPSRFSGSGSGTDFTLTISSLQPEDFATYYCQQYSTVPWTFGQGTKVEIKR |  | 193 |  |
|  |  | AB048: parent antibody, PGE2, SEQ ID 48/49 (antibody, V domains shown) VH: EVQLVQSGAEVKKPGASVKVSCKASGYTFTKYWLGWVRQAPGQGLEWMGDIYPGYDYTHYNEKFKDRVTLTTDTSTSTAYMELRSLRSDDTAVYYCARSDGSSTYWGQGTLVTVSS VL: DVLMTQTPLSLPVTPGEPASISCTSSQNIVHSNGNTYLEWYLQKPGQSPQLLIYKVSNRFSGVPDRFSGSGSGTDFTLKISRVEAEDVGVYYCFQVSHVPYTFGGGTKVEIKR |  |  | EC50 ([1]; parent antibody (cell spans both VD columns), read-out: PGE2 Neutralization EC50): 17 pM; EC50 ([2]; parent antibody (cell spans both VD columns), read-out: Direct Bind ELISA EC50 (PGE2 binding)): 1490 pM |
